In US20240084003A1 (SIMCERE ZAIMING PHARMACEUTICAL, published 2024):

T1: human CD22, full length, on CHO-K1-human CD22 2C4 cells (human, UniProt P20273 20-847)
T1 construct: Full-length human CD22 (NCBI NP_001762.2) stably transfected into CHO-K1
T1 sequence: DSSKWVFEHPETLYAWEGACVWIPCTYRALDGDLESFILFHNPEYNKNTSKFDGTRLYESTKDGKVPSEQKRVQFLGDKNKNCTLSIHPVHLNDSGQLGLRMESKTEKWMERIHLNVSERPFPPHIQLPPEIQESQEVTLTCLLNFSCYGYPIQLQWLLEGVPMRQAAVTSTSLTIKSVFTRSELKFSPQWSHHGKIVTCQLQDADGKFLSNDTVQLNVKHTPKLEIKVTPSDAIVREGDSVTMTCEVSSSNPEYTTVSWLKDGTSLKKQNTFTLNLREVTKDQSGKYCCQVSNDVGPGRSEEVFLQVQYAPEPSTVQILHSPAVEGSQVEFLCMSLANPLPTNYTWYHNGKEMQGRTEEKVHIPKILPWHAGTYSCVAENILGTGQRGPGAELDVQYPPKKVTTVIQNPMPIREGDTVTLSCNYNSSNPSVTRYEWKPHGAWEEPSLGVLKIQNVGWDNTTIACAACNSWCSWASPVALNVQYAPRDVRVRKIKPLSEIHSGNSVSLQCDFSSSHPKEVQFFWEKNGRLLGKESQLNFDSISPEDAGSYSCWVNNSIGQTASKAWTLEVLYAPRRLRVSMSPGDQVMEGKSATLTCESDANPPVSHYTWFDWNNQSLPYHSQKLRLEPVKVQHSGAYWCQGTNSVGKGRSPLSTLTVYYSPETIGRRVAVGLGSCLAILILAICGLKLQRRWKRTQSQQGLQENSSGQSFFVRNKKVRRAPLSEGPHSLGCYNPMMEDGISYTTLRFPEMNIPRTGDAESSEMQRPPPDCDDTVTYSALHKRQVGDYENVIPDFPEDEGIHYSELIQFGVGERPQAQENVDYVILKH

T2: human CD22, endogenous on Raji cells (human, UniProt P20273 20-847)
T2 construct: whole, on cells; Endogenous protein of the Raji cell line
T2 sequence (looked up): T1 sequence

T3: murine CD22 protein (ACROBiosystems, SI2-M52Ha) (murine, UniProt P35329 22-708)
T3 construct: extracellular domain; also called murine CD22-ECD; murine CD22-ECD-His
T3 sequence (looked up): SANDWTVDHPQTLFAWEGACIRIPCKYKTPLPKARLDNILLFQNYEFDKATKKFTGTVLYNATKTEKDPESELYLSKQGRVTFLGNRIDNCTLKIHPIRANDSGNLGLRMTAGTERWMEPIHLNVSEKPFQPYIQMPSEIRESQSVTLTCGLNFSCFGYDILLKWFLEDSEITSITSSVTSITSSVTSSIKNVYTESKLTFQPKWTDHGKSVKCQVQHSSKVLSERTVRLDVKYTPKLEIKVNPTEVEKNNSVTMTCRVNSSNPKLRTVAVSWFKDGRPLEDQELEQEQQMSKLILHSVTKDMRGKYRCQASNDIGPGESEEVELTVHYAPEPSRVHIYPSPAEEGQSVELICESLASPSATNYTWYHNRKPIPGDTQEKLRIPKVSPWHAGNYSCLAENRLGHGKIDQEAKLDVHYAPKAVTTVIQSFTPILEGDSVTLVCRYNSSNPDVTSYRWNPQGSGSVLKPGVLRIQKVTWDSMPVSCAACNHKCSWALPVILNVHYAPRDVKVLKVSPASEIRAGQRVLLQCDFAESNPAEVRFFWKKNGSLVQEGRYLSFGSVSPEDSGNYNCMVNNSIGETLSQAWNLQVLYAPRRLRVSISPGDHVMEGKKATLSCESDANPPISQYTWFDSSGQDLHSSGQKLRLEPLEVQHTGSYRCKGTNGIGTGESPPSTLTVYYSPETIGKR

B1: F1.245.2 human-murine chimeric antibody (antibody, human IgG1, kappa, V domains shown)
VH: EVQLQQSGAELVKPGASVKLSCTGSGFNIKDYYIHWVKQRTEQGLEWMGRIDPEDGETEYAPKFQDEATITSDTSSNTAYLQLSSLTYEDTAVYYCAREAAGYFYRGSSYGYFDVWGTGTTVTVSS
VL: DFQMTQTTSFLSASLGDRVTISCSASQDISNYLNWYQQKPDGTVKLLIYYTSSLHSGVPSRFSGSGSGTDYSLTISNLEPEDIATYYCQQYSMLPYTFGGGTKLEMER
notes: Chimeric, human IgG1 / kappa
B2: F1.60.9 human-murine chimeric antibody (antibody, human IgG1, kappa, V domains shown)
VH: QVQLKESGPGLVAPSQSLSITCTVSGLSLNNYGVSWVRQPPGKGLEWLGVIWGDGSTNYHSALISRLSISKDNSKSQVFLKLNSLHTDDTATYYCAINWGDYWGQGTTLIVSS
VL: DIKMTQSPSSMNASLGERVTITCKASQDINSYLSWFQQKPGKSPKILIYRANRLIDGVPSRFSGSGSGQDYSLTISSLEYEDMGIYYCLQYGVFPLTFGAGTKLELKR
notes: Chimeric, human IgG1 / kappa
B3: F1.172.13 human-murine chimeric antibody (antibody, human IgG1, kappa, V domains shown)
VH: QVTLKESGPGILQSSQTLSLTCSFSGFSLSTSGMGVSWIRQPSGKGLEWLAHIYWDDDKRYNPSLKSRLTISKDTSRNQVFLKITSVDTADTATYYCARAPPPNWDEYYFDYWGQGTTLTVSS
VL: DIQMTQSPASLSASVGETVTITCRASGNIHNSLAWYQQKQGKSPQLLVHNAKTLADGVPSRFSGSGSGTQYSLKINSLQPEDFGSYYCQHFWSTPPFGGGTKLEIKR
notes: Chimeric, human IgG1 / kappa
B4: F1.17.1 human-murine chimeric antibody (antibody, human IgG1, kappa, V domains shown)
VH: QVQLKESGPGLVAPSQSLSITCTVSGFSLSRYTVHWVRQPPGKGLEWLGMIWGGGSTDYNSALKSRLSISKDNSKSQVFLKMNSLQTDDTAMYYCARPHDFDAGGFAYWGQGTLVTVSA
VL: QIVLTQSPAILSTSPGEKVTMTCSASSRVNYMYWYQQKPGSSPRLLIYDTSNLASGVPVRFSGSGSGTSYSLTISRMEAEDAATYYCQQWTSYPLTFGAGTKLELKR
notes: Chimeric, human IgG1 / kappa
B5: F1.161.7 human-murine chimeric antibody (antibody, human IgG1, kappa, V domains shown)
VH: QVQLQQPGAELVKPGASVKMSCKASGYTFTSYWISWVKQRPGQGLEWIGDIYPGTGSSNYNEKFKSKATLTVDTSSSTAYMQLSSLTSEDSAVYYCARLKFEGIGYWGQGTTLTVSS
VL: QIVLTQSPAIMSASLGEEITLTCSASSSVSYMHWFQQKSGTSPKLLIYSISNLASGVPSRFSGSGSGTFYSLTISSVEAEDAADYYCHQWSSYPWTFGGGTKLEIKR
notes: Chimeric, human IgG1 / kappa
B6: F1.257.3 human-murine chimeric antibody (antibody, human IgG1, kappa, V domains shown)
VH: QVQLQQSGPELARPGASVKLSCKASGYTFTSYGISWVKQRTGQDLEWIGEIYPKLGTTYYNEKFKDKATLTTDRSSSTAYMALRSLTSEDSAVYFCACPHYYATRGGDYWGQGTTLTVSS
VL: EIVLTQSPATLSVTPGDSVTFSCRASQSISNHLHWYQQKSHESPRLLIRYASQSISGIPSRFSGSGSGTDFTLSLSSVETEDFGVYFCQQSHSWPYTFGGGTKLEIAR
notes: Chimeric, human IgG1 / kappa; VL tied by name

How the values were obtained:
[1] = target: T1, human CD22, full length, on …; assay: FACS, CHO-K1-human CD22 2C4 cells
Text: (§1) The required cells were scale-up cultured in a T-75 cell culture flask to the logarithmic growth phase. For the adherent cell CHO-K1, the medium was aspirated, the cells were washed 2 times with PBS buffer, and then digested with trypsin. After the digestion was terminated, the cells were washed 2 times with PBS buffer. For suspension cell Raji, the medium supernatant was directly centrifuged and discarded, and the cell pellet was washed 2 times with PBS. After counting the cells in the previous step, the cell pellet was resuspended with [PBS+2% (w/w) BSA] blocking solution to 2×10⁶ cells/ml, and added to a 96-well FACS reaction plate at 50 μl/well, and then the chimeric antibody test sample was added at 50 μl/well, and incubated on ice for 2 hours. The mixture was centrifuged and washed 3 times with PBS buffer, Alexa Flour 488-labeled secondary antibody (purchased from Invitrogen, catalog number: A-11013) was added at 50 μl/well, and incubated on ice for 1 hour. The obtained mixture was centrifuged and washed 5 times with PBS, and FACS (FACS Canto™, purchased from BD Company) was used for detection and result analysis. Data analysis was performed by software (CellQuest) to obtain the mean fluorescence density (MFI)of the cells. And then software (GraphPad Prism8) was used for analysis, data fitting, and EC50 value calculation. […] The same method was used to detect the binding of the chimeric antibodies to endogenous CD22-negative cell MoLT4 cells (purchased from ATCC, CRL-1582) and CHO-K1 cells.

[2] = target: T2, human CD22, endogenous on Raji cells; assay: FACS, Raji cells
Text: as §1

[3] = target: T3, murine CD22 protein (ACROBiosystems, …); assay: ELISA, coated murine CD22, 0.1 nM Ab
Description: (§2) In order to detect the binding activity of CD22 human-murine chimeric antibodies to CD22 protein, the purified human CD22-ECD-His protein obtained in Example 2 was diluted with PBS to a final concentration of 2 μg/mL, and then added to 96-well ELISA plate at 100 μl/well. The plate was sealed with plastic film and incubated overnight at 4° C., the plate was washed 2 times with PBS the next day, and then a blocking solution [PBS+2% (w/w) BSA] was added for blocking at room temperature for 2 hours. […] After incubation at 37° C. for 2 hours, the plate was washed 3 times with PBS. HRP (horseradish peroxidase)-labeled secondary antibody (purchased from Sigma, catalog number: A0170) was added, and incubated at 37° C. for 2 hours, and the plate was washed 5 times with PBS. TMB substrate was added at 50 μl/well, and incubated at room temperature for 30 minutes, then a stop solution (1.0 N HCl) was added at 50 μl/well.
(§3) In order to detect the species cross-binding activity of the chimeric antibodies, an ELISA plate was coated with commercial murine CD22 protein (ACROBiosystems, catalog number: SI2-M52Ha) and monkey CD22 protein (ACROBiosystems, catalog number: SI2-R52Ha), respectively, and the ELISA detection was performed according to the method in Example 5.1.

[4] = target: T3, murine CD22 protein (ACROBiosystems, …); assay: ELISA, coated murine CD22, 0.0001 nM Ab
Description: as §2, §3

[5] = target: T3, murine CD22 protein (ACROBiosystems, …); assay: ELISA, coated murine CD22, 0.00001 nM Ab
Description: as §2, §3

[6] = target: T3, murine CD22 protein (ACROBiosystems, …); assay: ELISA, coated murine CD22, 100 nM Ab
Description: as §2, §3

[7] = target: T3, murine CD22 protein (ACROBiosystems, …); assay: ELISA, coated murine CD22, 10 nM Ab
Description: as §2, §3

[8] = target: T3, murine CD22 protein (ACROBiosystems, …); assay: ELISA, coated murine CD22, 0.01 nM Ab
Description: as §2, §3

[9] = target: T3, murine CD22 protein (ACROBiosystems, …); assay: ELISA, coated murine CD22, 0.001 nM Ab
Description: as §2, §3

Binder	EC50 [1] [nM]	Maximum mean fluorescence intensity [1] [MFI]	EC50 [2] [nM]	Maximum mean fluorescence intensity [2] [MFI]	OD450 [3] [OD450]	OD450 [4] [OD450]	OD450 [5] [OD450]	OD450 [6] [OD450]	OD450 [7] [OD450]	OD450 [8] [OD450]	OD450 [9] [OD450]
B1	0.33	43300	0.07	29900	0.06	0.07	0.06	0.09	0.07	0.06	0.06
B2	0.61	30100	0.29	25300	0.05	0.06	0.06	0.08	0.06	0.06	0.05
B3	0.59	33800	0.17	23800	0.05	0.06	0.06	0.08	0.06	0.05	0.05
B4	0.44	36900	0.17	28500	0.05	0.05	0.06	0.07	0.06	0.05	0.05
B5	0.59	37100	0.22	27900	0.05	0.05	0.06	0.08	0.06	0.05	0.05
B6	0.68	46600	0.27	29300	0.05	0.05	0.06	0.2	0.07	0.05	0.05
